# According to patent publication US20040037843A1:
# Read-outs that look alike come from different tables or passages of the source.
# How the values were obtained:
# [1] = target: HLA-A*2401 (purified HLA class I molecule) (human); assay: competition with 125I-labelled probe peptide on purified HLA, gel filtration
# [2] = target: HLA-A*2401 (purified HLA class I molecule) (human); assay: competition with 125I-labelled standard peptide for purified HLA, gel filtration
# HLA-A*2401 (human) [3] = conditions: scale: ratio
# HLA-A*6802 (human) [4] = assay: competition with 125I-labelled standard peptide for purified HLA
# HLA-A*2401 (human) [5] = assay: competition with 125I-labelled probe peptide for purified HLA, gel filtration
# [6] = target: HLA-A*2401 (purified HLA class I molecule) (human)
# HLA-A*2401 (human) [7] = target: HLA-A*2401 (human)
# HLA-A*2401 (human) [8] = target: HLA-A*2401 (human); remark: listed apart in the source
# HLA-A*2401 (human) [9] = assay: competition with 125I-labelled probe peptide for purified HLA, gel filtration; remark: listed apart in the source
# HLA-A*0206 (human) = assay: competition with 125I-labelled standard peptide for purified HLA
# [10] = target: HLA-A*0101 (purified HLA class I molecule) (human)
# HLA-A*6802 (human) [11] = assay: competition with 125I-labelled standard peptide for purified HLA, gel filtration
substance,measurement,setting,value
"PSM peptide, position 638, 9 amino acids",relative binding ratio (IC50 of standard peptide / IC50 of test peptide),[1],0.0001
"PSA position 2, 10 amino acids (peptide)",relative binding ratio (IC50 of standard peptide / IC50 of test peptide),[2],0.0062
"PSA (Prostate Specific Antigen) peptide, position 2, 9 amino acids",relative binding ratio (A*2401),HLA-A*2401 (human) [3],2.1
"PSA (Prostate Specific Antigen) peptide, position 9, 9 amino acids",relative binding ratio (A*2401),HLA-A*2401 (human) [3],0.11
"peptide 1129.10, PSM.288",IC50,HLA-A*6802 (human) [4],1540 nM
"PSM position 448, 9 amino acids (peptide)",relative binding ratio (IC50 of standard peptide / IC50 of test peptide),HLA-A*2401 (human) [5],0.019
"PSM (prostate specific membrane antigen) peptide, position 621, 9 amino acids (from UniProt Q04609 621-629)",relative binding ratio (IC50 of standard peptide / IC50 of test peptide),[6],0.001
"PSA position 2, 9 amino acids (peptide)",relative binding ratio (IC50 of standard peptide / IC50 of test peptide),[2],2.1
"PAP position 297, 10 amino acids (peptide)",relative binding ratio (IC50 of standard peptide / IC50 of test peptide),[2],0.0001
"PSM (Prostate Specific Membrane Antigen) peptide, position 624, 10 amino acids",relative binding ratio (A*2401),HLA-A*2401 (human) [3],3.2
"PSA position 190, 9 amino acids (peptide)",relative binding ratio (IC50 of standard peptide / IC50 of test peptide),HLA-A*2401 (human) [5],0.031
"PSM position 409, 10 amino acids (…) (peptide)",relative binding ratio (IC50 of standard peptide / IC50 of test peptide),HLA-A*2401 (human) [7],0.054
"PSA peptide, position 91, 9 amino acids (A24 supermotif)",relative binding ratio (IC50 of standard peptide / IC50 of test peptide),HLA-A*2401 (human) [8],0.0007
"PSM (prostate specific membrane antigen) peptide, position 565, 10 amino acids",relative binding ratio (IC50 of standard peptide / IC50 of test peptide),[6],1.1
"PSM position 227, 9 amino acids (peptide)",relative binding ratio (IC50 of standard peptide / IC50 of test peptide),HLA-A*2401 (human) [9],0.44
same,relative binding ratio (IC50 of standard peptide / IC50 of test peptide),[2],0.44
"PSM position 74, 10 amino acids (peptide)",relative binding ratio (IC50 of standard peptide / IC50 of test peptide),HLA-A*2401 (human) [9],0.23
same,relative binding ratio (IC50 of standard peptide / IC50 of test peptide),[2],0.23
"PSA position 54, 10 amino acids (peptide)",relative binding ratio (IC50 of standard peptide / IC50 of test peptide),[2],0.0007
"PSA (Prostate Specific Antigen) peptide, position 2, 10 amino acids",relative binding ratio (A*2401),HLA-A*2401 (human) [3],0.0062
"PSM position 32, 10 amino acids (peptide)",relative binding ratio (IC50 of standard peptide / IC50 of test peptide),HLA-A*2401 (human) [5],0.0026
"PSM peptide, position 196, 10 amino acids",relative binding ratio (IC50 of standard peptide / IC50 of test peptide),HLA-A*0101 (human),0.016
"PAP peptide, position 309, 10 amino acids",relative binding ratio (IC50 of standard peptide / IC50 of test peptide),[1],0.024
"PSM peptide, position 178, 9 amino acids",relative binding ratio (IC50 of standard peptide / IC50 of test peptide),[1],0.77
"PSM position 178, 9 amino acids (peptide)",relative binding ratio (IC50 of standard peptide / IC50 of test peptide),[2],0.77
"PAP peptide, position 355, 10 amino acids",relative binding ratio (IC50 of standard peptide / IC50 of test peptide),[1],0.0037
"PSM (prostate specific membrane antigen) peptide, position 582, 10 amino acids",relative binding ratio (IC50 of standard peptide / IC50 of test peptide),[6],0.0002
"PSM position 582, 10 amino acids (peptide)",relative binding ratio (IC50 of standard peptide / IC50 of test peptide),HLA-A*2401 (human) [5],0.0002
"PSM position 606, 9 amino acids (peptide)",relative binding ratio (IC50 of standard peptide / IC50 of test peptide),HLA-A*2401 (human) [9],12
same,relative binding ratio (IC50 of standard peptide / IC50 of test peptide),HLA-A*2401 (human) [5],12
"PSA position 9, 9 amino acids (peptide)",relative binding ratio (IC50 of standard peptide / IC50 of test peptide),[2],0.11
"peptide 1126.01, PSM.663",IC50,HLA-A*6802 (human) [4],976 nM
"PSM position 668, 9 amino acids (peptide)",relative binding ratio (IC50 of standard peptide / IC50 of test peptide),HLA-A*2401 (human) [9],0.0075
same,relative binding ratio (IC50 of standard peptide / IC50 of test peptide),[2],0.0075
"PSA position 224, 9 amino acids (peptide)",relative binding ratio (IC50 of standard peptide / IC50 of test peptide),[2],0.0001
"PSM position 621, 9 amino acids (peptide)",relative binding ratio (IC50 of standard peptide / IC50 of test peptide),HLA-A*2401 (human) [5],0.001
"PSM position 31, 9 amino acids (printed as 8 in Table XVIII) (peptide)",relative binding ratio (IC50 of standard peptide / IC50 of test peptide),HLA-A*2401 (human) [5],0.019
"PSM position 638, 9 amino acids (peptide)",relative binding ratio (IC50 of standard peptide / IC50 of test peptide),[2],0.0001
"PAP peptide, position 183, 9 amino acids",relative binding ratio (IC50 of standard peptide / IC50 of test peptide),[1],0.11
"PSA peptide, position 54, 10 amino acids",relative binding ratio (IC50 of standard peptide / IC50 of test peptide),[1],0.0007
"PSA position 9, 10 amino acids (peptide)",relative binding ratio (IC50 of standard peptide / IC50 of test peptide),[2],0.36
"peptide 1419.24, PSA.166.V10",IC50,HLA-A*0206 (human),502 nM
"PSM position 624, 10 amino acids (peptide)",relative binding ratio (IC50 of standard peptide / IC50 of test peptide),[2],3.2
"PSM peptide, position 196, 10 amino acids (A1 supermotif)",relative binding ratio (IC50 of standard peptide / IC50 of test peptide),[10],0.016
"PAP peptide, position 163, 10 amino acids",relative binding ratio (IC50 of standard peptide / IC50 of test peptide),[1],0.0001
"PSA peptide, position 224, 9 amino acids (A24 supermotif)",relative binding ratio (IC50 of standard peptide / IC50 of test peptide),HLA-A*2401 (human) [8],0.0001
"PSA (Prostate Specific Antigen) peptide, position 9, 10 amino acids",relative binding ratio (A*2401),HLA-A*2401 (human) [3],0.36
"PSM position 565, 10 amino acids (peptide)",relative binding ratio (IC50 of standard peptide / IC50 of test peptide),HLA-A*2401 (human) [5],1.1
"PSM position 168, 10 amino acids (peptide)",relative binding ratio,HLA-A*6802 (human) [11],0.0013
"PAP peptide, position 297, 10 amino acids",relative binding ratio (IC50 of standard peptide / IC50 of test peptide),[1],0.0001
"PSA position 98, 9 amino acids (peptide)",relative binding ratio (IC50 of standard peptide / IC50 of test peptide),HLA-A*2401 (human) [5],0.0001
"PSM position 409, 10 amino acids (peptide)",relative binding ratio (IC50 of standard peptide / IC50 of test peptide),HLA-A*2401 (human) [5],0.054
"PSA position 190, 9 amino acids (…) (peptide)",relative binding ratio (IC50 of standard peptide / IC50 of test peptide),HLA-A*2401 (human) [7],0.031
"PAP position 70, 10 amino acids (peptide)",relative binding ratio (IC50 of standard peptide / IC50 of test peptide),HLA-A*2401 (human) [9],0.0022
"PSA position 96, 11 amino acids (peptide)",relative binding ratio (IC50 of standard peptide / IC50 of test peptide),HLA-A*2401 (human) [9],0.12
same,relative binding ratio (IC50 of standard peptide / IC50 of test peptide),[2],0.12
"PSM (prostate specific membrane antigen) peptide, position 32, 10 amino acids",relative binding ratio (IC50 of standard peptide / IC50 of test peptide),[6],0.0026
"PSM (prostate specific membrane antigen) peptide, position 31, 9 amino acids",relative binding ratio (IC50 of standard peptide / IC50 of test peptide),[6],0.019
